This is an account of results in patent US20210079111A1 (ABCYTE THERAPEUTICS, published 2021).

In assay [1] the target is CD19 CAR chain of CD19 CAR-mIL7 (CAR-1-CD19/CAR-2-IL-7, plasmid PC035), on transduced T cells. As to the kind of experiment: flow cytometry, CD19 CAR-mIL7 T cells stained with Protein L.
The target of assay [2] is T1, CD20 on CD20 positive cells (Raji, Nalm-6) (UniProt P11836 1-297, limits assumed).
T1 sequence (looked up): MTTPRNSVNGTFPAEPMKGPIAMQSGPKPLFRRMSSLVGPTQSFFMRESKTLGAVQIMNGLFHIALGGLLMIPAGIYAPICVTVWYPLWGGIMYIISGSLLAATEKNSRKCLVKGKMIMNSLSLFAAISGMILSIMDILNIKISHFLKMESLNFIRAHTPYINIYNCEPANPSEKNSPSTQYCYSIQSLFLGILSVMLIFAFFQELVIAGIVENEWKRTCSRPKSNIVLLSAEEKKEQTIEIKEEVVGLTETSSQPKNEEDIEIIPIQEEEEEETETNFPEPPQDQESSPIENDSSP
As to the kind of experiment: cell-based or functional assay.

The target of assay [3] is T2, CD19 on CD19 positive cells (Raji, Nalm-6) (human, UniProt P15391 20-556).
T2 sequence (looked up): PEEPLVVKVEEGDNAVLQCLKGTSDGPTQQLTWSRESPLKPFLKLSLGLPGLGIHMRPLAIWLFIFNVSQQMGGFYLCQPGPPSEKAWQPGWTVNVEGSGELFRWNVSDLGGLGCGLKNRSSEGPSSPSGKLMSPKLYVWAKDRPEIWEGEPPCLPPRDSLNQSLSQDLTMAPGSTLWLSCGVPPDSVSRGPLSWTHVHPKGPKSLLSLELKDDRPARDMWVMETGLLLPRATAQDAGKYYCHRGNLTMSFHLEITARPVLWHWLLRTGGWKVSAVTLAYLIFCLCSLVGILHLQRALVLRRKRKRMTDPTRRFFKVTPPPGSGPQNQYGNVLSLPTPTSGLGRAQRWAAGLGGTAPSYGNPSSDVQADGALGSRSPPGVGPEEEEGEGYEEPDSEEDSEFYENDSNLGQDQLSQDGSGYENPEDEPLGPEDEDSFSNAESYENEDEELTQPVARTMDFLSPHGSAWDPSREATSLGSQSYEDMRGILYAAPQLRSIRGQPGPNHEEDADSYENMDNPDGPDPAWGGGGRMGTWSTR
Nature of the assay: cell-based or functional assay.

Some results are limits rather than exact numbers.

On to Protein L, for which the percent positive cells in assay [1] worked out at 49%.

B1: CAR-1-CD20 (full humanized anti-CD20 single CAR), on transduced T cells (other)
chain: EIVLTQSPATLSLSPGERATMTCRASSSVNYMDWYQQKPGQAPRPWIYATSNLASGVPARFSGSGSGTDFTLTISSLEPEDFAVYYCQQWSFNPPTFGGGTKVEIKGSTSGGGSGGGSGGGGSSQVQLVQSGAEVKKPGASVKVSCKASGYTFTSYNMHWVRQAPGQGLEWIGAIYPGNGDTSYNQKFKGKATLTRDTSTSTVYMELSSLRSEDTAVYYCARSNYYGSSYWFFDVWGQGTTVTVSSTTTPAPRPPTPAPTIASQPLSLRPEACRPAAGGAVHTRGLDFACDFWLPIGCAAFVVVCILGCILICWLTKKKYSSSVHDPNGEYMFMRAVNTAKKSRLTDVTLRVKFSRSADAPAYKQGQNQLYNELNLGRREEYDVLDKRRGRDPEMGGKPRRKNPQEGLYNELQKDKMAEAYSEIGMKGERRRGKGHDGLYQGLSTATKDTYDALHMQALPPR
B1: the “target cell killing at E/T ratio at 10:1, 4 h, Raji and Nalm-6 co-culture (flow cytometry, CFSE/Annexin/PI)” value in assay [2] is over 80%.

B2: CAR-1-CD19 (full humanized anti-CD19 single CAR), on transduced T cells (other)
chain: DIQMTQSPSSLSASVGDRVTITCRASQDISKYLNWYQQKPGKAPKLLIYHTSRLHSGVPSRFSGSGSGTDYTLTISSLQPEDFATYYCQQGNTLPYTFGGGTKVEIKGSTSGGGSGGGSGGGGSSQVQLQESGPGLVKPSQTLSLTCTVSGVSLPDYGVSWIRQPPGKGLEWLGVIWGSETTYYNSALKSRLTISRDNSKNTLYLQMNSLRAEDTAVYYCAKHYYYGGSYAMDYWGQGTTVTVSSTTTPAPRPPTPAPTIASQPLSLRPEACRPAAGGAVHTRGLDFACDFWLPIGCAAFVVVCILGCILICWLTKKKYSSSVHDPNGEYMFMRAVNTAKKSRLTDVTLRVKFSRSADAPAYKQGQNQLYNELNLGRREEYDVLDKRRGRDPEMGGKPRRKNPQEGLYNELQKDKMAEAYSEIGMKGERRRGKGHDGLYQGLSTATKDTYDALHMQALPPR
Regarding B2, the “target cell killing at E/T ratio at 10:1, 4 h, Raji and Nalm-6 co-culture (flow cytometry, CFSE/Annexin/PI)” value in assay [3] was over 90%.
